Measured values: patent US20210393523A1, “AROMATIC RING SUBSTITUTED AMPHIPHILIC POLYMERS AS DRUG DELIVERY SYSTEMS” (Avldea Technologies, Inc., priority 2018, published 2021)
Square brackets hold non-standard residues; d marks the D form. Ends that are not written are not given here. N3‑DBCO = triazole linker from reaction of an azide with DBCO; Lys(N3) = [N-]=[N+]=NCCCC[C@H](N)C(=O)O; Phe(4-NH2) = Nc1ccc(C[C@H](N)C(=O)O)cc1

Legend:
[1] = Particle size and stability by dynamic light scattering; type: physicochemical; conditions: Table 3; peptide-based linear C-B-H; PBS pH 7.4, 0.5 mg/mL
Description: To evaluate particle size and stability, 10 μL of the resulting mixture was diluted with 190 μL PBS, pH 7.4 and the resulting solution was evaluated for turbidity and by dynamic light scattering (DLS).
This reaction scheme was used to prepare different compositions of amphiphilic block copolymers that were characterized for the capacity to form stable nanoparticle micelles in aqueous buffer, PBS pH 7.4, at a concentration of 0.5 mg/mL of amphiphilic block copolymer.
A series of linear amphiphilic block copolymers of formula C-B-H, wherein the charged molecule (C) and spacer (B) comprises peptides, i.e., poly(lysine) and poly(serine-co-glycine), respectively, with varying hydrophobic polymer composition were evaluated for particle size and stability by dynamic light scattering.

[2] = tested on: MC38 tumor cells; test: Regression of established MC38 tumors after intratumoral treatment; type: in vivo, C57BL/6 mice; conditions: intratumoral days 11 and 17, 10 and 50 nmol
Description: Tumors were measured by digital callipers for the longest dimension (‘length’) and the distance perpendicular to the length (‘width’), and volume estimated by the formula: <volume=width×width×length/2>. Data are reported as mean±s.e.m in FIGS. 3-5. Tumor regression is noted as soon as 1 day following 50 nmol dose of each S-B-H carrier of TLR-7/8a.

[3] = Particle size and stability by dynamic light scattering; type: physicochemical; conditions: Table 2; S-[B]-H particles

| Substance | Size (diameter, nm) [1] [nm] | other results |
| --- | --- | --- |
| KKKKKKK-SGSGSGSGSGSGSGSGSGSGSGSG-(Lys(N3-DBCO))-Ahx-(F′)5: peptide-based linear amphiphilic block copolymer (KKKKKKKSGSGSGSGSGSGSGSGSGSGSGSGK[Phe(4-NH2)][Phe(4-NH2)][Phe(4-NH2)][Phe(4-NH2)][Phe(4-NH2)]; not fully specified (residue 32); printed as KKKKKKK-SGSGSGSGSGSGSGSGSGSGSGSG-(Lys(N3-DBCO))-Ahx-(F′)5; also: Lys joined to F′ block via N3-DBCO-Ahx linkage) | 477 | – |
| KKKKKKK-SGSGSGSGSGSGSGSGSGSGSGSG-(Lys(N3-DBCO))-Ahx-(F′)20: peptide-based linear amphiphilic block copolymer (KKKKKKKSGSGSGSGSGSGSGSGSGSGSGSGK[Phe(4-NH2)][Phe(4-NH2)][Phe(4-NH2)][Phe(4-NH2)][Phe(4-NH2)][Phe(4-NH2)][Phe(4-NH2)][Phe(4-NH2)][Phe(4-NH2)][Phe(4-NH2)][Phe(4-NH2)][Phe(4-NH2)][Phe(4-NH2)][Phe(4-NH2)][Phe(4-NH2)][Phe(4-NH2)][Phe(4-NH2)][Phe(4-NH2)][Phe(4-NH2)][Phe(4-NH2)]; not fully specified (residue 32); also: Lys joined to F′ block via N3-DBCO-Ahx linkage) | 32 | – |
| KKK-SGSGSGSGSGSGSGSGSGSGSGSG-(Lys(N3-DBCO))-Ahx-(F′)10: peptide-based linear amphiphilic block copolymer (KKKSGSGSGSGSGSGSGSGSGSGSGSGK[Phe(4-NH2)][Phe(4-NH2)][Phe(4-NH2)][Phe(4-NH2)][Phe(4-NH2)][Phe(4-NH2)][Phe(4-NH2)][Phe(4-NH2)][Phe(4-NH2)][Phe(4-NH2)]; not fully specified (residue 28); printed as KKK-SGSGSGSGSGSGSGSGSGSGSGSG-(Lys(N3-DBCO))-Ahx-(F′)10; also: Lys joined to F′ block via N3-DBCO-Ahx linkage) | 3839 | – |
| {OH-PEG24}4-{propargyl}4K2K{Lys(N3)}-DBCO-Ahx-(F′)10 [Compound 80] | – | Regression of established tumors ([2]; FIG. 5, nanoparticles admixed with 2BXy and Doxorubicin at 1 to 4 to 4 molar ratio): promote regression of established tumors |
| KKK-SLVRX-(N3-DBCO)-WWWWW (KKKSLVR[Lys(N3)]WWWWW; not fully specified (residue 8); printed as KKK-SLVRX-(N3-DBCO)-WWWWW; also: azidolysine joined to Trp block via N3-DBCO linkage) [Compound 22] | – | Particle size (Diameter, nm) [3]: 64.73 nm |
| EEEEE-(N3-DBCO)-WWWWW (EEEEE[N3‑DBCO]WWWWW) [Compound 23] | – | Particle size (Diameter, nm) [3]: 54.09 nm |
| KKK-SGSGSGSGSGSGSGSGSGSGSGSG-(Lys(N3-DBCO))-Ahx-(F′)5: peptide-based linear amphiphilic block copolymer (KKKSGSGSGSGSGSGSGSGSGSGSGSGK[Phe(4-NH2)][Phe(4-NH2)][Phe(4-NH2)][Phe(4-NH2)][Phe(4-NH2)]; not fully specified (residue 28); printed as KKK-SGSGSGSGSGSGSGSGSGSGSGSG-(Lys(N3-DBCO))-Ahx-(F′)5; also: Lys joined to F′ block via N3-DBCO-Ahx linkage) | 1013 | – |
| K7(SG)12×—(N3-DBCO)-Ahx-(F′)20 [Compound 84] | – | Regression of established tumors ([2]; FIG. 4, nanoparticles associated with 2BXy (1 to 4 molar ratio) or covalently linked to 2BXy): promote regression of established tumors |
